Experimental findings from US20210380703A1 (RIGEL PHARMACEUTICALS, published 2021) are described below.

In one assay the target is mouse ACVR2A (mouse, UniProt P27038 20-135, limits assumed). Nature of the assay: ELISA. Summed up:
(§1)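 ELISA measured binding of ACVR2A-specific monoclonal antibodies to human and mouse ACVR2A. Biotinylated goat anti-human kappa light chain served as positive control and human Fc as negative control.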

The target in a further assay is human ACVR2A (human, UniProt P27037 20-135, limits assumed). Nature of the assay: ELISA. Summed up:
as §1
A general note: ELISA stands for enzyme-linked immunosorbent assay.

The target of assay [1] is T1, biotinylated goat anti-human kappa light chain.
T1 construct: Positive control of the ELISA
Nature of the assay: ELISA; positive control. The method in brief: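 Monoclonal antibodies were first applied to human or mouse ACVR2A, alongside biotinylated goat anti-human kappa light chain (positive control) and human Fc (negative control); binding was then determined by ELISA.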
Note: test concentration or dose not given here.

Chain of human ACVR2A (P27037 20-135 limits assumed): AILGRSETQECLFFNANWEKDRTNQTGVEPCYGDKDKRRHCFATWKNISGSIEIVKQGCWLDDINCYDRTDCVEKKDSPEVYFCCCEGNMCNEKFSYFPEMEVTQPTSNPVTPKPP
Chain of mouse ACVR2A (P27038 20-135 limits assumed): as the sequence (P27037 20-135 limits assumed) above, with K20R, V73I counted along it

B1: 367_H07 (antibody, V domains shown)
VH: EVQLLESGGGLVQPGGSLRLSCAASGFTFSSYSMNWVRQAPGKGLEWVANINYNGGYTGYADSVKGRFTISRDNSKNTLYLQMNSLRAEDTAVYYCARSATWHDTALDYWGQGTLVTVSS
VL: DIQMTQSPSSLSASVGDRVTITCRASQSILSYVNWYQQKPGKAPKLVIYATTSRASGVPSRFSGSGSGTDFTLTISSLQPEDFATYYCQQSYENPLTFGGGTKVEIK
notes: VH/VL only
For B1, the results for the optical density (in the assay with mouse ACVR2A; in the assay with human ACVR2A; in assay [1]) were 2.68 OD, 2.72 OD and 3.46 OD, respectively.

B2: 368_H12 (antibody, V domains shown)
VH: EVQLLESGGGLVQPGGSLRLSCAASGFTFDSYSMNWVRQAPGKGLEWVASINYNSGYKGYADSVKGRFTISRDNSKNTLYLQMNSLRAEDTAVYYCARSATWHDTHLDYWGQGTLVTVSS
VL: DIQMTQSPSSLSASVGDRVTITCRASQSIVTYLNWYQQKPGKAPKLLIYAATSRASGVPSRFSGSGSGTDFTLTISSLQPEDFATYYCQQSYESPLTFGGGTKVEIK
notes: VH/VL only
Consider B2, for which the optical density in the assay with mouse ACVR2A was determined as 2.69 OD; with human ACVR2A, 2.64 OD; in assay [1] it was 3.57 OD.

B3: 368_H07 (antibody, V domains shown)
VH: EVQLLESGGGLVQPGGSLRLSCAASGFTFSSYGMHWVRQAPGKGLEWVASINYNSGYTSYADSVKGRFTISRDNSKNTLYLQMNSLRAEDTAVYYCARSATWHDTHLDYWGQGTLVTVSS
VL: DIQMTQSPSSLSASVGDRVTITCRASQSILSYLNWYQQKPGKAPKLLIYAATSRASGVPSRFSGSGSGTDFTLTISSLQPEDFATYYCQQSYENPLTFGGGTKVEIK
notes: VH/VL only
B3: the values for the optical density (with mouse ACVR2A; with human ACVR2A; in assay [1]) were 2.86 OD, 2.71 OD and 3.55 OD, respectively.

B4: 368_C06 (antibody, V domains shown)
VH: EVQLLESGGGLVQPGGSLRLSCAASGFTFDSYSMNWVRQAPGKGLEWVAGINYNGGYKSYADSVKGRFTISRDNSKNTLYLQMNSLRAEDTAVYYCARSATWHDTHLDYWGQGTLVTVSS
VL: not shown
notes: VH/VL only
Consider B4, for which the optical density amounted to 1.03 OD with mouse ACVR2A, 0.738 OD with human ACVR2A and 3.52 OD in assay [1].

B5: 368_G05 (antibody, V domains shown)
VH: EVQLLESGGGLVQPGGSLRLSCAASGFTFDSYSMNWVRQAPGKGLEWVAGINYNGGYTSYADSVKGRFTISRDNSKNTLYLQMNSLRAEDTAVYYCARSATWHDTHLDYWGQGTLVTVSS
VL: DIQMTQSPSSLSASVGDRVTITCRASQSILTYVNWYQQKPGKAPKLLIYAATSLHSGVPSRFSGSGSGTDFTLTISSLQPEDFATYYCQQSYNTPLTFGGGTKVEIK
notes: VH/VL only
With B5, the figures for the optical density (with mouse ACVR2A; with human ACVR2A; in assay [1]) were 2.42 OD, 2.17 OD and 3.35 OD, respectively.

B6: 368_G09 (antibody, V domains shown)
VH: EVQLLESGGGLVQPGGSLRLSCAASGFTFDSYGMHWVRQAPGKGLEWVANINYNGGYTSYADSVKGRFTISRDNSKNTLYLQMNSLRAEDTAVYYCARSATWHDTHLDYWGQGTLVTVSS
VL: DIQMTQSPSSLSASVGDRVTITCRASQSIVSYLNWYQQKPGKAPKLVIYAATSRASGVPSRFSGSGSGTDFTLTISSLQPEDFATYYCQQSYDTPLTFGGGTKVEIK
notes: VH/VL only
In the case of B6, the optical density was 2.81 OD with mouse ACVR2A, 2.44 OD with human ACVR2A and 3.62 OD in assay [1].

B7: 369_A05 (antibody, V domains shown)
VH: EVQLLESGGGLVQPGGSLRLSCAASGFTFSSYSMNWVRQAPGKGLEWVAGINYNGGYTGYADSVKGRFTISRDNSKNTLYLQMNSLRAEDTAVYYCARSATWHDTHLDYWGQGTLVTVSS
VL: DIQMTQSPSSLSASVGDRVTITCRASQSILTYVNWYQQKPGKAPKLVIYAATSRASGVPSRFSGSGSGTDFTLTISSLQPEDFATYYCQQSYESPLTFGGGTKVEIK
notes: VH/VL only
B7: the optical density in the assay with mouse ACVR2A came out at 3.25 OD; with human ACVR2A it was 3.29 OD; in assay [1] it was 3.48 OD.

B8: 368_E11 (antibody, V domains shown)
VH: EVQLLESGGGLVQPGGSLRLSCAASGFTFDSYGMHWVRQAPGKGLEWVANINYNGGYTSYADSVKGRFTISRDNSKNTLYLQMNSLRAEDTAVYYCARSATWHDTHLDYWGQGTLVTVSS
VL: DIQMTQSPSSLSASVGDRVTITCRASQSIISYVNWYQQKPGKAPKLLIYAATSRHSGVPSRFSGSGSGTDFTLTISSLQPEDFATYYCQQSYELPLTFGGGTKVEIK
notes: VH/VL only
As for B8, the results for the optical density (with mouse ACVR2A; in the assay with human ACVR2A; in assay [1]) were 2.92 OD, 2.57 OD and 3.73 OD, respectively.

B9: 369_C10 (antibody, V domains shown)
VH: EVQLLESGGGLVQPGGSLRLSCAASGFTFSSYSMNWVRQAPGKGLEWVANINYNGGYTSYADSVKGRFTISRDNSKNTLYLQMNSLRAEDTAVYYCARSATWHDTALDYWGQGTLVTVSS
VL: DIQMTQSPSSLSASVGDRVTITCRASQSIVTYLNWYQQKPGKAPKLLIYAATSLHSGVPSRFSGSGSGTDFTLTISSLQPEDFATYYCQQSDSLPLTFGGGTKVEIK
notes: VH/VL only
Take B9: the optical density with mouse ACVR2A came to 2.46 OD; with human ACVR2A, 2.48 OD; in assay [1] it was 3.37 OD.

B10: 369_B12 (antibody, V domains shown)
VH: EVQLLESGGGLVQPGGSLRLSCAASGFTFDSYSMNWVRQAPGKGLEWVSGINYNGGYKSYADSVKGRFTISRDNSKNTLYLQMNSLRAEDTAVYYCARSATWHDTHLDYWGQGTLVTVSS
VL: DIQMTQSPSSLSASVGDRVTITCRASQSILTYVNWYQQKPGKAPKLLIYATTSLASGVPSRFSGSGSGTDFTLTISSLQPEDFATYYCQQSYDSPLTFGGGTKVEIK
notes: VH/VL only
On to B10, for which the optical density with mouse ACVR2A worked out at 2.76 OD; with human ACVR2A it was 2.67 OD; in assay [1] it was 3.56 OD.

B11: 369_B02 (antibody, V domains shown)
VH: EVQLLESGGGLVQPGGSLRLSCAASGFTFDSYSMNWVRQAPGKGLEWVSGINYNGGYKSYADSVKGRFTISRDNSKNTLYLQMNSLRAEDTAVYYCARSATWHDTHLDYWGQGTLVTVSS
VL: DIQMTQSPSSLSASVGDRVTITCRASQSILSYLNWYQQKPGKAPKLVIYAATSRASGVPSRFSGSGSGTDFTLTISSLQPEDFATYYCQQSYNLPLTFGGGTKVEIK
notes: VH/VL only
In the case of B11, the figures for the optical density (with mouse ACVR2A; with human ACVR2A; in assay [1]) were 3.55 OD, 3.4 OD and 3.52 OD, respectively.

B12: 368_C01 (antibody, V domains shown)
VH: EVQLLESGGGLVQPGGSLRLSCAASGFTFDSYGMNWVRQAPGKGLEWVAGINYNGGYTGYADSVKGRFTISRDNSKNTLYLQMNSLRAEDTAVYYCARSATWHDTALDYWGQGTLVTVSS
VL: DIQMTQSPSSLSASVGDRVTITCRASQSIITYLNWYQQKPGKAPKLLIYAATSRASGVPSRFSGSGSGTDFTLTISSLQPEDFATYYCQQSYDSPLTFGGGTKVEIK
notes: VH/VL only
B12: the figures for the optical density (in the assay with mouse ACVR2A; with human ACVR2A; in assay [1]) were 2.92 OD, 2.61 OD and 3.71 OD, respectively.

B13: 368_F12 (antibody, V domains shown)
VH: EVQLLESGGGLVQPGGSLRLSCAASGFTFDDYSMNWVRQAPGKGLEWVASINYNSGYKSYADSVKGRFTISRDNSKNTLYLQMNSLRAEDTAVYYCARSATWHDTHLDYWGQGTLVTVSS
VL: DIQMTQSPSSLSASVGDRVTITCRASQSIVTYLNWYQQKPGKAPKLVIYAATSLASGVPSRFSGSGSGTDFTLTISSLQPEDFATYYCQQSYDLPLTFGGGTKVEIK
notes: VH/VL only
In the case of B13, the optical density with mouse ACVR2A is 1.7 OD; with human ACVR2A, 1.69 OD; in assay [1] it was 3.52 OD.

B14: 369_A10 (antibody, V domains shown)
VH: EVQLLESGGGLVQPGGSLRLSCAASGFTFDSYSMNWVRQAPGKGLEWVAGINYNSGYTGYADSVKGRFTISRDNSKNTLYLQMNSLRAEDTAVYYCARSATWHDTHLDYWGQGTLVTVSS
VL: DIQMTQSPSSLSASVGDRVTITCRASQSILSYLNWYQQKPGKAPKLLIYAATSRASGVPSRFSGSGSGTDFTLTISSLQPEDFATYYCQQSYELPLTFGGGTKVEIK
notes: VH/VL only
Turning to B14, the optical density is 3.14 OD with mouse ACVR2A, 3.38 OD in the assay with human ACVR2A and 3.41 OD in assay [1].

B15: 368_H01 (antibody, V domains shown)
VH: EVQLLESGGGLVQPGGSLRLSCAASGFTFSSYSMNWVRQAPGKGLEWVAGINYNSGYKSYADSVKGRFTISRDNSKNTLYLQMNSLRAEDTAVYYCARSATWHDTHLDYWGQGTLVTVSS
VL: DIQMTQSPSSLSASVGDRVTITCRASQSILSYLNWYQQKPGKAPKLLIYATTSLASGVPSRFSGSGSGTDFTLTISSLQPEDFATYYCQQSYDNPLTFGGGTKVEIK
notes: VH/VL only
Consider B15, for which the results for the optical density (with mouse ACVR2A; with human ACVR2A; in assay [1]) were 3.14 OD, 3.03 OD and 3.69 OD, respectively.

B16: 368_D10 (antibody, V domains shown)
VH: EVQLLESGGGLVQPGGSLRLSCAASGFTFDSYGMNWVRQAPGKGLEWVAGINYNSGYTSYADSVKGRFTISRDNSKNTLYLQMNSLRAEDTAVYYCARSATWHDTALDYWGQGTLVTVSS
VL: DIQMTQSPSSLSASVGDRVTITCRASQSILSYLNWYQQKPGKAPKLVIYAATSRASGVPSRFSGSGSGTDFTLTISSLQPEDFATYYCQQSYDSPLTFGGGTKVEIK
notes: VH/VL only
Consider B16, for which the values for the optical density (with mouse ACVR2A; with human ACVR2A; in assay [1]) were 2.45 OD, 2.25 OD and 3.26 OD, respectively.

B17: 369_B09 (antibody, V domains shown)
VH: EVQLLESGGGLVQPGGSLRLSCAASGFTFDSYGMHWVRQAPGKGLEWVASINYNGGYTSYADSVKGRFTISRDNSKNTLYLQMNSLRAEDTAVYYCARSATWHDTHLDYWGQGTLVTVSS
VL: DIQMTQSPSSLSASVGDRVTITCRASQSILTYLNWYQQKPGKAPKLLIYAATSRASGVPSRFSGSGSGTDFTLTISSLQPEDFATYYCQQSYENPLTFGGGTKVEIK
notes: VH/VL only
Turning to B17, the optical density with mouse ACVR2A is 1.58 OD; with human ACVR2A, 1.62 OD; in assay [1], 2.22 OD.

B18: 369_D11 (antibody, V domains shown)
VH: EVQLLESGGGLVQPGGSLRLSCAASGFTFSSYGMHWVRQAPGKGLEWVASINYNGGYTSYADSVKGRFTISRDNSKNTLYLQMNSLRAEDTAVYYCARSATWHDTHLDYWGQGTLVTVSS
VL: DIQMTQSPSSLSASVGDRVTITCRASQSILTYLNWYQQKPGKAPKLVIYAATSLASGVPSRFSGSGSGTDFTLTISSLQPEDFATYYCQQSDELPLTFGGGTKVEIK
notes: VH/VL only
With B18, the values for the optical density (with mouse ACVR2A; with human ACVR2A; in assay [1]) were 2.99 OD, 2.99 OD and 3.45 OD, respectively.
